Tests used:
[1] = NBT photoreduction on NATIVE-PAGE electrophoresis (anti-radical / antioxidant activity of SODs); assay type: biochemical; conditions: currently used bacterial host strains, rare codons
Method: The expression products of the first variants for each kind of constructions were used to validate the anti-radical activity of the various biosynthetic SODs obtained. These activities were verified by the reduction of NBT on native PAGE.
The melon pseudo cytosolic Cu—ZnSOD and the human or tomato cytosolic Cu—ZnSOD as well as their equivalents bearing the two different gliadin peptides are analysed for their antiradical activities. These activities are verified according to the NBT photoreduction on NATIVE-PAGE electrophoresis (Beauchamps and Fridovitch, 1971).
The Cucumis melo recombinant SOD as well as its equivalents bearing the gliadin peptide (Gli-SOD) were produced and purified according to a multiple step denaturation/renaturation protocol. […] The potentiality of both recombinant proteins (Cucumis melo SOD and Gli-SOD) to reduce NBT on NATIVE-PAGE electrophoresis (NBT photoreduction, Beauchamps and Fridovitch, 1971) was evaluated and compared with that of the natural Cucumis melo extract.
The migration profile and the NBT reduction obtained on Native-PAGE electrophoresis corroborate the correct and efficient refolding of both recombinant proteins, SOD or Gli-SOD (4 000-10 000 UNBT/mg protein) which is a mandatory event to display their antioxidant activity.

HT-29 cell line = assay: HT-29 cell proliferation (cell count, GUAVA PC Viacount); assay type: cell-based, human; conditions: for toxic effect on HT-29 proliferation curves: 10 units, sampled over 72 hours; for dose that does not modify growth of the HT-29 cell line: dose range 0 to 50 NBT units
Method: The human colon carcinoma cell line HT-29 (ATCC HTB-38) is grown in 10% foetal bovine serum (FBS) in Dulbecco's modified Eagle's medium (D-MEM) supplemented with GlutaMAX-1, 4.5 g/L D-Glucose, sodium pyruvate and 100 unit/ml of penicillin/streptomycin. For each experiment (n=4) approximately 2×10^4 cells/well were incubated for 24 hours at 37° C. in 5% CO2 atmosphere. Prior to any experiment, existing culture medium was replaced by a fresh one.
After the incubation period, cell monolayers were detached with a PBS solution containing 0.05% trypsin and 0.5 mM EDTA, washed in calcium-free and magnesium-free phosphate-buffered saline solution (PBS) and collected by centrifugation. Cells were then counted in a hemocytometer by using the GUAVA PC Viacount Flex Kit and reported in cells/ml to estimate cellular proliferation.
In the current experiment, cultures are periodically sampled over a 72 hour period to assess the proliferation rate and the viability of HT-29 cells after exposure or not to various components, (a) 10 μM of gliadin peptide 982 (Triticum vulgare, QQPYPQPF, SEQ. ID No. 01) representing at least 100 times less than the concentration previously related to induce a significant enterocyte agglutination (De Vicenzi. M et al. 1997 Toxicology, vol 120 p 207) or enterocyte apoptosis (Giovannini et al. 2000, Toxicology, vol 145 p 63).
For recombinant protein dose-response experiments, HT-29 cells were incubated with increasing concentrations of recombinant SOD or Gli-SOD (0 to 50 NBT units) for a further 48 hours.
Cultures were periodically sampled over 72 hours to assess the proliferation rate and the viability of HT-29 cells after exposure or not to various components, (a) 10 units of recombinant SOD or (b) 10 units of recombinant SOD associated with 10 μM of peptide 982 or finally (c) 10 units of recombinant Gli-SOD (SOD physically linked to gliadin peptide 982).

[2] = system: foot oedema induced by carrageenan or adriamycin; conditions: cited from earlier work; for anti-inflammatory activity in rats: studies in rats
HT-29 cells [3] = assay: Xanthine/xanthine oxidase (X/XO)-induced apoptosis of HT-29 cells, annexin V test; assay type: cell-based, human; conditions: 50 units, 10mU of X/XO complex
Method: (§1) Apoptosis was analyzed in HT-29 cell line using the GUAVA Nexin Kit which discriminates between apoptotic and non apoptotic cells. This method utilizes annexin V Phycoerythrin to detect phopshatidylserine (PS) (Martin et al. 1995, J Exp Med vol 182 p 1545) on the external membrane of apoptotic cells.
(§2) After 24 hours, cell monolayers are detached with a PBS solution containing trypsin 0.05% and EDTA 0.5 mM, washed in calcium-free and magnesium-free phosphate-buffered saline solution (PBS) and apoptotic cell staining is performed and analysed with a GUAVA PCA system.
In this third experiment, tests of the potent anti-apoptotic effect of the recombinant SOD or Gli-SOD according to the invention on the possible Fas/FasL pathway via Xanthine/xanthine oxidase induction in the HT-29 cells culture medium were carried out.
In this case, the rate of HT-29 cell going into apoptosis may be enhanced from 20% evaluated for the basal level to 30% by addition of 10mU of X/XO complex in the culture medium. Addition of 50 units of recombinant melon SOD or again 50 units of recombinant Gli-SOD to the culture medium, prevented the X/XO-induced apoptotic pathway in the HT-29 cells respectively by 71% and 86%.

HT-29 cells [4] = assay: Binding of SOD or Gli-SOD to HT-29 cells, FITC immunohistochemistry with EP-1669; assay type: cell-based, human; conditions: 50 units, 24 hours
Method: For each experiment (n=4), approximately 15×10^3 cells/lamella layer were incubated for 24 hours at 37° C. in 5% CO2 atmosphere. Prior to any experiment, existing culture medium was replaced by a fresh one.
The cell monolayer was then incubated in a fresh medium with or without 50 units of SOD or Gli-SOD for a further 24 hours, washed in calcium-free and magnesium-free phosphate-buffered saline solution (PBS) and then analyzed by immunohistochemistry. Binding of Gli-SOD to HT-29 cells was analyzed using the EP-1669 as a first antibody (rabbit IgG anti-SOD, dilution 1/2000°) for 30 minutes followed by a second FITC-coupled antibody for further 30 minutes (goat anti-rabbit antibody, dilution 1/100). This method was chosen rather than flow cytometry because the latter technique requires that cells be harvested by trypsin treatment and collected prior to analysis, and such treatment would likely have negatively impacted the interaction between the Gli-SOD molecules and cell surfaces.

HT-29 cells [5] = assay: Basal apoptosis of HT-29 cells, annexin V test (GUAVA Nexin Kit); assay type: cell-based, human; conditions: 10 units, 24 hours; for rate of basal apoptosis (annexin V positive cells): basal 20% (20.5)
Method: as §1, §2
(§3) For the basal apoptotic inhibition (part A), the culture medium was replaced with fresh culture medium containing or absent 10 units of both recombinant SODs (NBT units). For the Orexin induced-apoptotic inhibition (part B), the culture medium was replaced with fresh culture medium containing 1 μM of orexin and/or 50 units of each recombinant SOD (NBT units). Results are expressed as the percentage of apoptotic annexin V-PE positive cells and are the means of four points.

HT-29 cells [6] = assay: Orexin-induced apoptosis of HT-29 cells, annexin V test; assay type: cell-based, human; conditions: 50 units + 1 μM orexin; for rate of orexin-induced apoptosis: orexin alone 40%
Method: as §1, §2, §3
In a second experiment, the potent anti-apoptotic effect of the recombinant SOD or Gli-SOD was confirmed when apoptosis was induced via orexin supplementation to the HT-29 cells culture medium. In this case, the rate of HT-29 cell going into apoptosis may be enhanced from 20% evaluated for the basal level to 40% by addition of 1 μM of Orexin in the culture medium.

Molecule: Human CuZn-SOD: recombinant human cytosolic CuZn-SOD expressed in bacteria
- activity of biosynthetic SOD expressed in the applicant's bacterial system [1]: functional

Molecule: QQPYPQPQPF (Triticum vulgare) [peptide 982, 10 amino acids peptide of A-gliadin, Triticum vulgare]
- effect on HT-29 cell line proliferation at 24 hours (HT-29 cell line; 10 μM peptide, 24 hours of culture): a major effect on HT-29 cell line proliferation, but exclusively at 24 hours of culture
- effect on HT-29 proliferation after 48 hours (HT-29 cell line; 10 μM peptide, 48 hours): the proliferation returns to its basal level

Molecule: bovine CuZn-SODs: bovine CuZn superoxide dismutase
- anti-inflammatory activity after oral administration ([2]; administered orally, using liposomes or ceramides, rat leg oedema induced by carrageenan): reduction of rat leg oedema induced by carrageenan
- anti-inflammatory activity in rats [2]: such an anti-inflammatory activity

Molecule: homologous rat CuZn-SOD: rat CuZn superoxide dismutase
- anti-inflammatory activity in rats [2]: no anti-inflammatory activity

B1: yeast CuZn-SODs: yeast CuZn superoxide dismutase (protein, UniProt P00445 2-154, looked up)
Superoxide dismutase [Cu-Zn]: VQAVAVLKGDAGVSGVVKFEQASESEPTTVSYEIAGNSPNAERGFHIHEFGDATNGCVSAGPHFNPFKKTHGAPTDEVRHVGDMGNVKTDENGVAKGSFKDSLIKLIGPTSVVGRSVVIHAGQDDLGKGDTEESLKTGNAGPRPACGVIGLTN
- anti-inflammatory activity in rats [2]: pro-inflammatory activity

B2: biosynthetic tomato cytosolic SODs: recombinant Lycopersicon esculentum cytosolic CuZn-SOD expressed in bacteria (protein, listed as Lycopersicon esculentum)
chain: MVKAVAVLNSSEGVSGTILFTQDGDAPTTVNGNISGLKPGLHGFHVHALGDTTNGCMSTGPHYNPAGKEHGAPEDEVRHAGDLGNITVGEDGTASFTITDKQIPLTGPQSIIGRAVVVHADPDDLGKGGHELSKSTGNAGGRIACGIIGLQG
- activity of biosynthetic SOD expressed in the applicant's bacterial system [1]: a lot less active

B3: recombinant Gli-SOD: recombinant melon CuZn SOD fused at its N-terminal part to A-gliadin peptide QQPYPQPQPF (peptide 982) (protein)
chain: QQPYPQPQPFMVKAVAVLKGTSDVEGVVTLTQEDDGPTSVNVRITGLTPGPHGFHLHEFGDTTNGCISTGAHFNPNKLTHGAPEDEIRHAGDLGNIIANADGVAEATIVDNQIPLSGPNSVVGRAFVVHELADDLGKGGHELSLTTGNAGGRLACGVVGLTPV
modifications: Cucumis melo
- prevention of X/XO-induced apoptotic pathway (HT-29 cells [3]): 86%
- presence of SOD in the vicinity of the cells (FITC fluorescence) (HT-29 cells [4]): apparently to a greater extent
- inhibition of basal apoptosis (HT-29 cells [5]): 18.1%
- rate of basal apoptosis (annexin V positive cells) (HT-29 cells [5]): 16.8%
- "peptide effect" on HT-29 proliferation at 24 hours (HT-29 cell line; 10 units SOD coupled to or associated with 10 μM peptide 982): no “peptide effect” at 24 hours of culture
- toxic effect on HT-29 proliferation curves (HT-29 cell line): neither SOD nor Gli-SOD exert any toxic effect
- dose that does not modify growth of the HT-29 cell line (HT-29 cell line; 48 hours): 5 units
- inhibition of orexin-induced apoptosis (HT-29 cells [6]): 54.7%
- rate of orexin-induced apoptosis (HT-29 cells [6]): 28.7%

B4: recombinant SOD: recombinant Cucumis melo CuZn superoxide dismutase (pseudo-cytosolic form) expressed in E. coli, His-tag cleaved, refolded (protein)
chain: MVKAVAVLKGTSDVEGVVTLTQEDDGPTSVNVRITGLTPGPHGFHLHEFGDTTNGCISTGAHFNPNKLTHGAPEDEIRHAGDLGNIIANADGVAEATIVDNQIPLSGPNSVVGRAFVVHELADDLGKGGHELSLTTGNAGGRLACGVVGLTPV
modifications: Cucumis melo
- prevention of X/XO-induced apoptotic pathway (HT-29 cells [3]): 71%
- presence of SOD in the vicinity of the cells (FITC fluorescence) (HT-29 cells [4]): clearly visible
- inhibition of basal apoptosis (HT-29 cells [5]): 12.2%
- rate of basal apoptosis (annexin V positive cells) (HT-29 cells [5]): 18%
- toxic effect on HT-29 proliferation curves (HT-29 cell line): neither SOD nor Gli-SOD exert any toxic effect
- dose that does not modify growth of the HT-29 cell line (HT-29 cell line; 48 hours): 10 units
- inhibition of orexin-induced apoptosis (HT-29 cells [6]): 26%
- rate of orexin-induced apoptosis (HT-29 cells [6]): 34.4%

B5: human Mn-SOD: human manganese superoxide dismutase (protein, UniProt P04179 25-222, looked up)
Superoxide dismutase [Mn], …: KHSLPDLPYDYGALEPHINAQIMQLHHSKHHAAYVNNLNVTEEKYQEALAKGDVTAQIALQPALKFNGGGHINHSIFWTNLSPNGGGEPKGELLEAIKRDFGSFDKFKEKLTAASVGVQGSGWGWLGFNKERGHLQIAACPNQDPLQGTTGLIPLLGIDVWEHAYYLQYKNVRPDYLKAIWNVINWENVTERYMACKK
- anti-inflammatory activity in rats [2]: no anti-inflammatory activity
